In patent US6344546 (RHONE POULENC RORER, dated 2002):

B1: human recombinant kFGF (ligand, UniProt P08620 31-206, looked up)
chain: APTAPNGTLEAELERRWESLVALSLARLPVAAQPKEAAVQSGAGDYLLGIKRLRRLYCNVGIGFHLQALPDGRIGGAHADTRDSLLELSPVERGVVSIFGVASRFFVAMSSKGKLYGSPFFTDECTFKEILLPNNYNAYESYKYPGMFIALSKNGKTKKGNRVSPTMKVTHFLPRL
modifications: radioiodinated (125I) by Enzymobeads
notes: also called hst/kFGF
B2: bovine derived acidic fibroblast growth factor (ligand, UniProt P03968 16-155, looked up)
chain: FNLPLGNYKKPKLLYCSNGGYFLRILPDGTVDGTKDRSDQHIQLQLCAESIGEVYIKSTETGQFLAMDTDGLLYGSQTPNEECLFLERLEENHYNTYISKKHAEKHWFVGLKKNGRSKLGPRTHFGQKAILFLPLPVSSD
modifications: radioiodinated (125I) by Enzymobeads where used as labelled ligand
notes: Purified from a bovine source; also called aFGF; acidic FGF

What was measured:
[1] = biological target: T1, human bek (bacterially expressed kinase) fibroblast growth factor receptor (human, UniProt P21802 22-821); assay: Scatchard analysis of [125I]kFGF saturation binding to bek13 cells
T1 construct: whole, on cells; Three-Ig-domain form, 135 kDa glycoprotein on transfected NIH 3T3 cells; Clone Nbek8 was used with aFGF and bFGF, clone NBek13 with kFGF; also called bek8; NBek8
T1 sequence (P21802 22-821): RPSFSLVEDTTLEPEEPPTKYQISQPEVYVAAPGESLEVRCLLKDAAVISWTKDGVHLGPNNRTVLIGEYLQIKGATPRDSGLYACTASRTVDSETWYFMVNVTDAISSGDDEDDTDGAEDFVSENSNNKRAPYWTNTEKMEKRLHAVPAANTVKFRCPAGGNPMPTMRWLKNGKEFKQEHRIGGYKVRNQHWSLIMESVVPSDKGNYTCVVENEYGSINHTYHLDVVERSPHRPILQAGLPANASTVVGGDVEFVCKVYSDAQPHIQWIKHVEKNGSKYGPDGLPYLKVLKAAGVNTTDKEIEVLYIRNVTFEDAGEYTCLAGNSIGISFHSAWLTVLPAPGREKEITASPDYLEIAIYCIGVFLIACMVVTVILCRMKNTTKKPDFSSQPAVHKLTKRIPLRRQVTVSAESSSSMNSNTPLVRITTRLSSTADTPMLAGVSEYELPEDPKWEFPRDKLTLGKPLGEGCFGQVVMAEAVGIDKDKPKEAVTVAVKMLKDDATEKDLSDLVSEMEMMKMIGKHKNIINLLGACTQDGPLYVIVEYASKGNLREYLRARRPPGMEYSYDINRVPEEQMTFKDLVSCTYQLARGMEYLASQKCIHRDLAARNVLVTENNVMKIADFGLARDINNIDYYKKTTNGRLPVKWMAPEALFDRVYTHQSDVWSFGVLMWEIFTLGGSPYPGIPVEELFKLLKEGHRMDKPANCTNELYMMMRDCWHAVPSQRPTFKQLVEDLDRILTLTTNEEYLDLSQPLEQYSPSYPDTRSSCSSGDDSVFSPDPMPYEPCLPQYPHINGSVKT

[2] = biological target: T2, human flg (fms-like gene) fibroblast growth factor receptor (human, UniProt P11362 22-822); assay: Scatchard analysis of saturation binding to flg overexpressing cells, kFGF against bFGF
T2 construct: whole, on cells; Three-Ig-domain form, 150 kDa glycoprotein on transfected NIH 3T3 cells; also called flg26; NFlg26
T2 sequence (P11362 22-822): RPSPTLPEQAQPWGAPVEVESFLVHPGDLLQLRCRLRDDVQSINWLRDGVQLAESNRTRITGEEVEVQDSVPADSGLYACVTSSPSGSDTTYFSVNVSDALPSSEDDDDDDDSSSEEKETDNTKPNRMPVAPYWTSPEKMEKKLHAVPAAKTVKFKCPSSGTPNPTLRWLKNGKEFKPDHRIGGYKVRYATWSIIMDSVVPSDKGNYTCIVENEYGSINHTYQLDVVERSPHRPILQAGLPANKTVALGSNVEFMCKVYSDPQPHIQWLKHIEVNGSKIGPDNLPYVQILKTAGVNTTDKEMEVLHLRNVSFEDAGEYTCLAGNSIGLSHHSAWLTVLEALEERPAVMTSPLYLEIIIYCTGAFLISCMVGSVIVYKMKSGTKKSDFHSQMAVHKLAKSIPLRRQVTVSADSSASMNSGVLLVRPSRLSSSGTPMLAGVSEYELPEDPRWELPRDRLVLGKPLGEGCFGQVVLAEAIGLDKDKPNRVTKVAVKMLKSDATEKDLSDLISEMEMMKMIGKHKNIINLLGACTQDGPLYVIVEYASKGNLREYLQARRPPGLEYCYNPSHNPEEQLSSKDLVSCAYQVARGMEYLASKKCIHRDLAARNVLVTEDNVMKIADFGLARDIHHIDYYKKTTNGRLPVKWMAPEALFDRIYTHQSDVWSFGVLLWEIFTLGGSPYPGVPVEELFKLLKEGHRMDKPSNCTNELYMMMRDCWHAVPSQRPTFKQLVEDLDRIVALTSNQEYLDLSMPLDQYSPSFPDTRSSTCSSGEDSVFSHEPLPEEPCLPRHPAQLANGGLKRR
Procedure: (§1) Fibronectin-coated 24 well dishes containing 1×10^5 cells/well were placed on ice, and the wells were rinsed twice with cold binding buffer (DMEM, 1 mg/ml BSA, 5 U/ml heparin, 50 mM Hepes, pH 7.4). […] Nonspecific binding was obtained using the same serial dilutions but in the presence of 100 fold molar excess of non-radioactive aFGF. After incubation, the cells were placed on ice and rinsed twice with ice cold binding buffer minus heparin and then solubilized in 0.3N NaOH 37° C., 15 minutes.
(§2) Equilibrium Binding Analysis of flg and bek Radioloabled with Acidic, Basic and k-fibroblast Growth Factors Acidic and basic FGF were radioiodinated and purified on heparin-Sepharose as described above. The dissociation constants of bek and flg for aFGF and bFGF were established by saturation binding analysis of the overexpressing cell lines with the iodinated ligands. Binding of both aFGF and bFGF to bek and flg was specific and saturable (FIG. 6A, inserts).

[3] = biological target: T2, human flg (fms-like gene) fibroblast …; assay: Scatchard analysis of [125I]kFGF saturation binding to flg26 cells
[4] = biological target: T2, human flg (fms-like gene) fibroblast …; assay: saturation binding of [125I]aFGF to flg26 cells with excess unlabelled aFGF or bFGF
Procedure: (§3) The background counts in the presence of a 100 fold molar excess of either ligand was always less than 10% of the total cpm at each point. The scale on the Scatchard analysis is the same in each panel.
as §1
as §2, with “inserts). […] Scatchard, (*Ann. N.Y. Acad.” for “inserts).”

[5] = biological target: T1, human bek (bacterially expressed …); assay: Scatchard analysis of [125I]aFGF saturation binding to bek overexpressing NIH 3T3 cells
Procedure: as §3, §1
as §2, with “inserts). […] Scatchard, (*Ann. N.Y. Acad.” for “inserts).”

[6] = biological target: T1, human bek (bacterially expressed …); assay: saturation binding of [125I]aFGF to bek8 cells with excess unlabelled aFGF or bFGF
Procedure: as §3, §1
as §2, with “inserts). […] Scatchard, (*Ann. N.Y. Acad.” for “inserts).”

[7] = biological target: T2, human flg (fms-like gene) fibroblast …; assay: Scatchard analysis of [125I]aFGF saturation binding to flg overexpressing NIH 3T3 cells
Procedure: The scale on the Scatchard analysis is the same in each panel.
as §1, §2

[8] = biological target: T1, human bek (bacterially expressed …); assay: Scatchard analysis of saturation binding, additional experiments
Procedure: as §1, §2

Binder	Kd [1]	fold less avidity than bFGF [2]	Kd [3]	background counts with 100 fold molar excess of either ligand, % of total cpm [4]	Kd [5]	background counts with 100 fold molar excess of either ligand, % of total cpm [6]	Kd [7]	Kd [8]
B1	0.08 nM	4 fold	0.32 nM	–	–	–	–	–
B2	–	–	–	< 10%	0.047 nM	< 10%	0.024 nM	0.04 to 0.1 nM
